Data on two proteins can be found in article PMC6330057 (Nature cell biology, 2018).

This data set deals with the molecule itself. Description: negative-stain electron microscopy of fibrils.

B1: CrSSNA1(1-105) (domain or fragment, Chlamydomonas reinhardtii, UniProt Q9XF62 1-105, looked up)
chain: MSAQGQALQNHNNELVKCIEDLREKREEIIKQLREDDAEKAKITQELQILTKRLAQVNESIARKTETKNEYDKVISETEAAYLKILESSQTLLTVLKREAVNIAK
For the protein B1, the binding result is given as “binds”.

B2: CrSSNA1(20-111) (domain or fragment, Chlamydomonas reinhardtii, UniProt Q9XF62 20-111, looked up)
chain: EDLREKREEIIKQLREDDAEKAKITQELQILTKRLAQVNESIARKTETKNEYDKVISETEAAYLKILESSQTLLTVLKREAVNIAKKKQASS
With B2, the binding result is reported as “binds”.
